The nature of the series: yeast display, Sf9 membrane polyspecificity reagent, FACS + sequencing; frameworks hold sequencing errors. The gist of the method: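 Genes from sorted yeast were amplified by colony PCR, read by MiSeq 2 × 250 sequencing and filtered on CDR length. These cells carried a synthetic nanobody library in Saccharomyces cerevisiae BJ5465 and were sorted by FACS into low and high (top ~1%) gates on anti-HA and streptavidin fluorescence. Polyreactivity is labelled according to the gate of origin.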
On to “QVQLVESGGGLVQAGGSLRLSCAASGRIFYRYAMGWYRQAPGKERELVAAISSAGSTNYADSVKGRFTISRDNAKNTVYLQMNSLKPEDTAVYYCNTVTRWVGKLEYWGQGTQVTVSS”, for which the “polyreactivity (PSR sort gate)” value is reported as “high polyreactivity”.

In the case of “QVQLVESGGGLVQAGGSLRLSCAASGRIFYRYAMGWYRQAPGKERELVAAITRGGRTNYADSVKGRFTISRDNAQNTVYLQMNSLKPEDTAVYYCRPLWYGFDYWGQGTQVTVSS”, the “polyreactivity (PSR sort gate)” value was “high polyreactivity”.

For “QVQLVESGGGLVQAGGSLRLSCAASGRIFYRYAMGWYRQAPGKERELVAGITRGGSTYYADSVKGRFTISRDNAKNTVYFQMNSLKPEDTAVYYCNVRWSPAGTGLLDYWGQGTQVTVSS”, the “polyreactivity (PSR sort gate)” value is on record as “high polyreactivity”.

As for “QVQLVESGGGLVQAGGSLRLSCAASGRIFYRYAMGWYRQAPGKERELVATITNGGSTNYADSVKGRFTISRDNAKNTVYLQMNSLKPEDTAVYYCAARLPGYYGIGDYWGQGTQVTVSS”, the “polyreactivity (PSR sort gate)” value was “high polyreactivity”.

As for “QVQLVESGGGLVQAGGSLRLSCAASGRIFYRYAMGWYRQAPGKERELVAVISGGGTYYADSVKGRFTISRDNAKNTVYLQMNSLKPEDTAVYYCAADDGVSLVSPYYGGYDYWGQGTQVTVSS”, the “polyreactivity (PSR sort gate)” value is recorded as “low polyreactivity”.

For “QVQLVESGGGLVQAGGSLRLSCAASGRIFYRYGMGWYRQAPGKERELVASITRGGSTYYADSVKGRFTISRDNAKNTVYLQMNSLKPEDTAVYYCATKSSAGYDYWGQGTQVTVSS”, the “polyreactivity (PSR sort gate)” value was “low polyreactivity”.

“QVQLVESGGGLVQAGGSLRLSCAASGRIFYRYSMGWYRQAPGKERELVAAIRYSGGTTYADSVKGRFTISRDNAKNTVYLQMNSLKPEDTAVYYCAARASLWGGFESWGQGTQVTVSS”: the “polyreactivity (PSR sort gate)” value is listed as “high polyreactivity”.

On to “QVQLVESGGGLVQAGGSLRLSCAASGRIFYSNAMGWYRQAPGKERELVAAISGSTDSTYYADSVKGRFTISRDNAKNTVYLQMNSLKPEDTAVYYCAAADYWFYYGYYLTMDYWGQGTQVTVSS”, for which the “polyreactivity (PSR sort gate)” value is listed as “low polyreactivity”.

For the sequence “QVQLVESGGGLVQAGGSLRLSCAASGRIFYSNTMGWYRQAPGKERELVAAITWRGGRTHYADSVKGRLTISRDNAKNPVYLQMNSLTPEDTAVYYCAARYIPIQYPSYRTWGGYSWGQGTQVTVSS”, the “polyreactivity (PSR sort gate)” value was “high polyreactivity”.

For the sequence “QVQLVESGGGLVQAGGSLRLSCAASGRIFYSNVMGWYRQAPGKERELVAAISGRTGGTYYADSVKGRFTISRDNAKNTVYLQMNSLKPEDTAVYYCAARVGWNKRRYDYWGQGTQVTVSS”, the “polyreactivity (PSR sort gate)” value is reported as “low polyreactivity”.

Turning to “QVQLVESGGGLVQAGGSLRLSCAASGRIFYSYAMGWYRQAPGKERELDAAITRGGSTSYADSVKGRFTISRDNAKNTVYLQMNSLKPEDTAVYYCATRQFYSYWKYYYWGQGTQVTVSS”, the “polyreactivity (PSR sort gate)” value is “high polyreactivity”.

As to “QVQLVESGGGLVQAGGSLRLSCAASGRIFYSYAMGWYRQAPGKERELVAAITESGGSTNYADSVKGRFTISRDNAKNTVYLQMNSLKPEDTAVYYCNARYKLTFNLYNYWGQGTQVTVSS”, the “polyreactivity (PSR sort gate)” value is listed as “low polyreactivity”.

On to “QVQLVESGGGLVQAGGSLRLSCAASGRIFYSYAMGWYRQAPGKERELVAAITRTGGNTYYADSVKGRFTISRDNAKNTVYLQMNSLKPEDTAVYYCNAEYWKEHYPEIYYSWGQGTQVTVSS”, for which the “polyreactivity (PSR sort gate)” value was “low polyreactivity”.

For “QVQLVESGGGLVQAGGSLRLSCAASGRIFYSYAMGWYRQAPGKERELVAAITVSGGSTFYADSVKGRFTISRDNAKNTVYLQMNSLKPEDTAVYYCAATRFSQYDWGQGTQVTVSS”, the “polyreactivity (PSR sort gate)” value is reported as “high polyreactivity”.

As to “QVQLVESGGGLVQAGGSLRLSCAASGRIFYSYAMGWYRQAPGKERELVARISSGGSTNYADSVKGRFTISRDNAKNTVYLQMNSLKPEDTAVYYCAAATIWSGVHYGYWGQGTQVNVSS”, the “polyreactivity (PSR sort gate)” value is “low polyreactivity”.

Consider “QVQLVESGGGLVQAGGSLRLSCAASGRIFYSYAMGWYRQAPGKERELVATISSGGSTNYADSVKGRFTISRDNAKNTVYLQMNSLKPEDTAVYYCARDSTYSSYTSNDYWGQGTQVTVSS”, for which the “polyreactivity (PSR sort gate)” value was “high polyreactivity”.

For the sequence “QVQLVESGGGLVQAGGSLRLSCAASGRIFYSYAMGWYRQAPGKERELVATITNGGSTNYADSVKGRFTMSRDNAKNTVYLQMNSLKPEDTAVYYCAKRSFRYASALVRYPPGYYWGQGTQVTVSS”, the “polyreactivity (PSR sort gate)” value is “high polyreactivity”.

For the sequence “QVQLVESGGGLVQAGGSLRLSCAASGRIFYTNAMGCYRQAPGKERELVAAIRSGGITTYADSVKGRFTISRDNAKNTVYLQMNSLKPEDTAVYYCATRILSIYSIFGAYDYWGQGTQVTVSS”, the “polyreactivity (PSR sort gate)” value is on record as “low polyreactivity”.

As for “QVQLVESGGGLVQAGGSLRLSCAASGRIFYTNAMGWSRQAPGKERELVAVISWGGDTTYYADSVKGRFTISRDNAKNTVYLQLNSLKPEDTAVYYCNADWGPTYEIYDSWGQGTQVTVSS”, the “polyreactivity (PSR sort gate)” value was “low polyreactivity”.

Consider “QVQLVESGGGLVQAGGSLRLSCAASGRIFYTYAMGWYRQAPGKASELVAAITYRGGSTYYADSVKGRFTISRDIAKNTVYLQMNSLKPADTAVYYCAARPGRGPDSRWRYKYDYWGQGTQVTVSS”, for which the “polyreactivity (PSR sort gate)” value is “high polyreactivity”.

On to “QVQLVESGGGLVQAGGSLRLSCAASGRIFYVNAMGWYRQAPGKERELVAAISGSGGRTYYADSVKGRFTISRDNAKNTVYLQMNSLKPEDTAVYYWNTQFRYPQKYDYWGQGTQVTVSS”, for which the “polyreactivity (PSR sort gate)” value is recorded as “high polyreactivity”.

Regarding “QVQLVESGGGLVQAGGSLRLSCAASGRIFYVNTMGWYRQAPGKERELVATISSAASTNYADSVKGRFTISRDNAKNTVYLQMNSLKPEDTAVYYCNAAFYKEYFYWGQGTQVTVSS”, the “polyreactivity (PSR sort gate)” value is “low polyreactivity”.

Regarding “QVQLVESGGGLVQAGGSLRLSCAASGRIFYVYAMGWYRQAPGKERELVAAISSDDGSTYYADSVKGRFTISRDNAKNTVYLQMNSLKPEVTAVYYCAKANKRGRYNYWGQGTQVTVSS”, the “polyreactivity (PSR sort gate)” value is “high polyreactivity”.

For “QVQLVESGGGLVQAGGSLRLSCAASGRIFYVYGLGWYRQEPGKERELVAAISKRGDNTYYADSVKGRFTISRDNSKNTVYLQMNSLKPEDTAVYYCKVKRYGGRSDYWGQGTQVTVSS”, the “polyreactivity (PSR sort gate)” value was “high polyreactivity”.

With “QVQLVESGGGLVQAGGSLRLSCAASGRIFYVYSMGWYRQAPGKDRELVADISRGGSTNYADSVKGRFTISRDNAKNTVYLQMNSLKPEDTAVYYCNTDGLWSAEYDYWGQGTQVTVSS”, the “polyreactivity (PSR sort gate)” value was “low polyreactivity”.

Consider “QVQLVESGGGLVQAGGSLRLSCAASGRIFYVYTMGWYRQAPGKERELVAAITWRGGSTYYADSVKGRFTISRDNAKNTVYLQMNSLKPEDTAVYYCATAQWVGYWDDYWGQGTQVTVSS”, for which the “polyreactivity (PSR sort gate)” value is “high polyreactivity”.

For “QVQLVESGGGLVQAGGSLRLSCAASGRIFYWYDMGWYRQAPGKERELVAAISTRGGSTYYADSVKGRFTISRDNAKNTVYLQMNSLKPEDTAVYYCAARANPYVLKYYYWGQGTQVTVSS”, the “polyreactivity (PSR sort gate)” value is “high polyreactivity”.

“QVQLVESGGGLVQAGGSLRLSCAASGRIFYYNAMGWYRPAPGKERELVAAIDWSGGSTYYADSVKGRFTISRDNAKNTVYLQMNSLKPEDTAVYYCNAPFRYVPPEGSGPYDYWGQGTQVTVSS”: the “polyreactivity (PSR sort gate)” value was “low polyreactivity”.

In the case of “QVQLVESGGGLVQAGGSLRLSCAASGRIFYYNAMGWYRPAPGKERELVATITGSGGSTYYADSVKGRFTISRDNAKNTVYLQMNSLKPEDTAVYYCNATRWYYDFYKLDYWGQGTQVTVSS”, the “polyreactivity (PSR sort gate)” value is recorded as “low polyreactivity”.

As to “QVQLVESGGGLVQAGGSLRLSCAASGRIFYYNAMGWYRQAPGKERELVAGITWRGGSTYYADSVKGRFTISRDNAKNTVYVQMNSLKPEDTAVYYCAKVGWTPYGVSPYDYWGQGTQVTVSS”, the “polyreactivity (PSR sort gate)” value was “high polyreactivity”.
